Laboratory results as given in patent US20230416394A1.

Key:
human TGFβ1 (human) [1] = target: human TGFβ1 (human) (UniProt P01137); assay: ELISA, blocking of TGFβRII-His binding to coated TGFβ1
human TGFβ1 (human) [2] = target: human TGFβ1 (human) (UniProt P01137); assay: Octet, ES014-1 on sensor, TGFβ gradient
[3] = target: human CD39 protein (Octet assays) (human); assay: Octet, ES014-1 on sensor, CD39 protein gradient
human CD39 (human) = human CD39 (human) (UniProt P49961); assay: cell-based or functional assay
Chain of human CD39 (human) (P49961 whole entry): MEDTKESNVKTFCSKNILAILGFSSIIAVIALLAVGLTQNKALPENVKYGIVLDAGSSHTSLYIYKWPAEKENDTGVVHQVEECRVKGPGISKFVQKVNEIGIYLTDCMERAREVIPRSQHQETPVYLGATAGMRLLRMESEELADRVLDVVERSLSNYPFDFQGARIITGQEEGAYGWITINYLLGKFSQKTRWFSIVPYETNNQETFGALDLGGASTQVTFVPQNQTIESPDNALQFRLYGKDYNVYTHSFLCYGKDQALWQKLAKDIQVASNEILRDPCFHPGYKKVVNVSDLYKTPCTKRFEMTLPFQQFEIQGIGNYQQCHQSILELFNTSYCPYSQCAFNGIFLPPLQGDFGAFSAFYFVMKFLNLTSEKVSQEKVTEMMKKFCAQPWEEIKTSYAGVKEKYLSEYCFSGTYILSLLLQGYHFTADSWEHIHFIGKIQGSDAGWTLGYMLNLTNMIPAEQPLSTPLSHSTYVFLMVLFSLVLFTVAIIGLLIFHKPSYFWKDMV

human TGFβ1 (human) [4] = target: human TGFβ1 (human) (UniProt P01137); assay: ELISA, coated human TGFβ1

Chain of human TGFβ1 (human) (P01137 279-390 limits assumed): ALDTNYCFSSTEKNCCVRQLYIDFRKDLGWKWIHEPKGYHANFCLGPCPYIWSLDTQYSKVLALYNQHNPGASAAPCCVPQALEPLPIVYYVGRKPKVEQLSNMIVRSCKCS

IC50 (human TGFβ1 (human) [1]): 3.73 nM
Kd (human TGFβ1 (human) [2]): 0.037 nM
koff (human TGFβ1 (human) [2]): 0.000234 s⁻¹
kon (human TGFβ1 (human) [2]): 6.32e+06 M⁻¹ s⁻¹
Kd [3]: 0.376 nM
koff [3]: 3.44e-05 s⁻¹
kon [3]: 91400 M⁻¹ s⁻¹
IC50 to CD39 ATPase activity on MOLP-8 cells (CellTiterGlo) (human CD39 (human)): 1.21 nM
EC50 (human TGFβ1 (human) [4]): 0.26 nM
Substance: ES014-1 (bispecific antibody)
